In the supplement of paper PMC9233669:
Variants at the floor of the assay were thinned out.

Experiments:
biotinyl-Met-oxazolone = experiment: self-aminoacylation, catalytic enhancement (BMO) (fold over background); higher = more active; k-Seq, kA / k0A0; sequences stand for … in GGGAAUGGAUCCACAUCUACGAAUUC…UUCACUGCAGACUUGACGAAGCUG
Summary of the method: (§1)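 The uncatalyzed rate is the low-activity peak of a bimodal Gaussian fit, and catalytic enhancement is median kA divided by it. The kA values came from pseudo-first-order fits, with 1000 bootstraps, of per-sequence fraction reacted measured by streptavidin capture, triplicate qPCR and Illumina sequencing. Mutagenized RNA pools with a 21-nt variable region (0.43 μM) were reacted with each biotinyl-aminoacyl-oxazolone at 2–1250 μM in 50 μL HEPES/NaCl/KCl/MgCl2/CaCl2 buffer with 5% acetonitrile, pH 6.9–7.0, for 90 minutes at room temperature.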

biotinyl-Phe-oxazolone = experiment: self-aminoacylation, catalytic enhancement (BFO) (fold over background); higher = more active; k-Seq, kA / k0A0; sequences stand for … in GGGAAUGGAUCCACAUCUACGAAUUC…UUCACUGCAGACUUGACGAAGCUG
Summary of the method: as §1

biotinyl-Trp-oxazolone = experiment: self-aminoacylation, catalytic enhancement (BWO) (fold over background); higher = more active; k-Seq, kA / k0A0; sequences stand for … in GGGAAUGGAUCCACAUCUACGAAUUC…UUCACUGCAGACUUGACGAAGCUG
Summary of the method: as §1

biotinyl-Val-oxazolone = experiment: self-aminoacylation, catalytic enhancement (BVO) (fold over background); higher = more active; k-Seq, kA / k0A0; sequences stand for … in GGGAAUGGAUCCACAUCUACGAAUUC…UUCACUGCAGACUUGACGAAGCUG
Summary of the method: as §1

biotinyl-Ile-oxazolone = experiment: self-aminoacylation, catalytic enhancement (BIO) (fold over background); higher = more active; k-Seq, kA / k0A0; sequences stand for … in GGGAAUGGAUCCACAUCUACGAAUUC…UUCACUGCAGACUUGACGAAGCUG
Summary of the method: as §1

biotinyl-Leu-oxazolone = experiment: self-aminoacylation, catalytic enhancement (BLO) (fold over background); higher = more active; k-Seq, kA / k0A0; sequences stand for … in GGGAAUGGAUCCACAUCUACGAAUUC…UUCACUGCAGACUUGACGAAGCUG
Summary of the method: as §1

Sequence | self-aminoacylation (biotinyl-Met-oxazolone) | self-aminoacylation (biotinyl-Phe-oxazolone) | self-aminoacylation (biotinyl-Trp-oxazolone) | self-aminoacylation (biotinyl-Val-oxazolone) | self-aminoacylation (biotinyl-Ile-oxazolone) | self-aminoacylation (biotinyl-Leu-oxazolone)
AAGUUUGCUAAGAGUCCCAAG [Fam3.1 aminoacylation ribozyme variant] | 0.787 | 1.48 | 1 | 0.672 | 0.788 | 0.765
UAUCACCUAGGUCAUCGGGUG [Fam2.2 aminoacylation ribozyme variant] | 4.75 | 15.1 | 5.87 | 3.88 | 3.72 | 4.88
CUUCUUCAAACAUUCGGUCUG [Fam1A.1 aminoacylation ribozyme variant] | 1.15 | 1.05 | 1.39 | 1.23 | 1.03 | 1.26
AUUACCCUGGUCAUAAAGUGA [Fam2.1 aminoacylation ribozyme variant] | 11.1 | 43.9 | 13.4 | 5.16 | 4.88 | 10.3
CAACACUUCAAACAAUCGGUC [Fam1B.1 aminoacylation ribozyme variant] | 1.84 | 78.2 | 38.2 | 1.38 | 1.36 | 2.11
CUACUUCAAAGAGUCGGUCUG [Fam1A.1 aminoacylation ribozyme variant] | 1.13 | 0.46 | 0.754 | 0.835 | 0.695 | 0.849
CUAAUUCAAACAACCGGUCUG [Fam1A.1 aminoacylation ribozyme variant] | 0.958 | 0.916 | 0.69 | 0.754 | 0.947 | 0.724
CUACUUCAAAUAAUCGGUCGG [Fam1A.1 aminoacylation ribozyme variant] | 0.909 | 6.6 | 5.93 | 0.832 | 1.07 | 1.13
CUACGUCAAACAAUCGGGCUG [Fam1A.1 aminoacylation ribozyme variant] | 2.42 | 0.86 | 2.32 | 2.33 | 1.9 | 2.05
CCUCACUUCAAGCAAUCAGUC [Fam1B.1 aminoacylation ribozyme variant] | 0.83 | 21.2 | 6.56 | 0.921 | 0.781 | 1.01
AAUUUUGCUAAUAGUCGAAAG [Fam3.1 aminoacylation ribozyme variant] | 1.16 | 3.69 | 2.11 | 0.991 | 1.56 | 1.2
AUUACCCUGGUCAUCCUGUGA [Fam2.1 aminoacylation ribozyme variant] | 1.39 | 2.81 | 1.52 | 1.07 | 1.51 | 1.71
AUUCGCCUAGGUCAUCGGGGG [Fam2.2 aminoacylation ribozyme variant] | 5.82 | 30 | 3.54 | 3.72 | 4.36 | 7.51
AUUCACCGAGGUCAACGGGUG [Fam2.2 aminoacylation ribozyme variant] | 5.75 | 36.9 | 5.14 | 3.27 | 3.52 | 8.52
AUUCACCAACGUCAUCGGGUG [Fam2.2 aminoacylation ribozyme variant] | 8.41 | 74 | 7.38 | 5.26 | 5.28 | 11.8
AUGUUUGCUAAUAGUCGCAAA [Fam3.1 aminoacylation ribozyme variant] | 1.75 | 4.87 | 2.71 | 1.59 | 2.2 | 1.54
AGUCACCUAGGUCGUCGGGUG [Fam2.2 aminoacylation ribozyme variant] | 2.28 | 12.9 | 2.71 | 2.43 | 2.48 | 4.29
GAUUUUGCUAAUAGUCGCAAG [Fam3.1 aminoacylation ribozyme variant] | 2.2 | 2.53 | 2.99 | 1.83 | 1.99 | 1.82
AUUACCUUGGUCAUCCAGUGA [Fam2.1 aminoacylation ribozyme variant] | 4.51 | 22.5 | 5.48 | 2.84 | 3.16 | 4.83
CCACGCUUCAAGGAAUCGGUC [Fam1B.1 aminoacylation ribozyme variant] | 1.22 | 11.6 | 11 | 1.1 | 1.11 | 1.19
AUUCCCCUGGUCAUCGAAUGA [Fam2.1 aminoacylation ribozyme variant] | 2.45 | 2.91 | 2.15 | 1.96 | 2.24 | 2.09
AUUCACCAAGGUCAUCUGGUG [Fam2.2 aminoacylation ribozyme variant] | 3.53 | 28 | 3.52 | 2.29 | 2.38 | 5.5
AUUCACCUAGGUAAUCGGGCG [Fam2.2 aminoacylation ribozyme variant] | 1.66 | 7.69 | 2.33 | 1.65 | 1.63 | 2.62
AUUAACCUGGUCAUUGAGUGA [Fam2.1 aminoacylation ribozyme variant] | 9.39 | 53.1 | 12 | 4.05 | 4.38 | 9.89
AUUACGCUGGUCAUCGAGUGU [Fam2.1 aminoacylation ribozyme variant] | 2.96 | 2.57 | 3.22 | 2.64 | 2.34 | 2.9
AUUCACCUAGGUCACUGGGUG [Fam2.2 aminoacylation ribozyme variant] | 2.82 | 19.7 | 2.52 | 1.72 | 1.8 | 3.93

Sequence | self-aminoacylation (biotinyl-Met-oxazolone) | self-aminoacylation (biotinyl-Phe-oxazolone) | self-aminoacylation (biotinyl-Trp-oxazolone) | self-aminoacylation (biotinyl-Val-oxazolone) | self-aminoacylation (biotinyl-Ile-oxazolone) | self-aminoacylation (biotinyl-Leu-oxazolone)
CCACACGUCAAGCAAUCGGUC [Fam1B.1 aminoacylation ribozyme variant] | 1.16 | 0.848 | 1.16 | 1.65 | 1.11 | 1.17
CCACACGUCAAGCAAUGGGUC [Fam1B.1 aminoacylation ribozyme variant] | 1.36 | 0.534 | 1.02 | 1.49 | 1.14 | 1.36
AUUCACCUCGGCCAUCGGGUG [Fam2.2 aminoacylation ribozyme variant] | 6.8 | 56.7 | 6.78 | 5.61 | 4.23 | 7.44
AUACUUCAAACACUCGGUCUG [Fam1A.1 aminoacylation ribozyme variant] | 0.83 | 1.31 | 0.981 | 0.821 | 1.06 | 0.917
CUACUUCAAGCAAUCCGUCUG [Fam1A.1 aminoacylation ribozyme variant] | 0.833 | 1.86 | 1.25 | 1.17 | 1 | 0.941
AUGACCCUGGUCAUCGAGUGG [Fam2.1 aminoacylation ribozyme variant] | 30 | 215 | 20.9 | 8.22 | 7.48 | 31
AUUACCCUGGUGAUCGGGUGA [Fam2.1 aminoacylation ribozyme variant] | 5.18 | 39.5 | 6.86 | 4.27 | 3.43 | 7.07
CUGCUUCAAACAAUCGGUCGG [Fam1A.1 aminoacylation ribozyme variant] | 2.05 | 183 | 59.6 | 1.71 | 1.48 | 3.72
ACACACUUCAAGCAAUCAGUC [Fam1B.1 aminoacylation ribozyme variant] | 0.988 | 9.33 | 4.18 | 1.11 | 1.12 | 0.999
ACUACCAUGGUCAUCGAGUGA [Fam2.1 aminoacylation ribozyme variant] | 6.31 | 34.8 | 9.5 | 4.53 | 4.61 | 7.97
CCACACUUCAGGCAAUCGGCC [Fam1B.1 aminoacylation ribozyme variant] | 2.15 | 13.1 | 3.69 | 3.89 | 2.61 | 4.67
UUUCACCUAGGUCAUCGGGGG [Fam2.2 aminoacylation ribozyme variant] | 2.73 | 21.3 | 3.77 | 3.25 | 3.52 | 4.45
AUUCACCUAGAUCAUCGUGUG [Fam2.2 aminoacylation ribozyme variant] | 1.36 | 1.49 | 1.06 | 0.999 | 0.956 | 1.38
AUUCACCUUGGUCACCGGGUG [Fam2.2 aminoacylation ribozyme variant] | 5.58 | 27.5 | 5.4 | 4.2 | 4.82 | 6.72
CCACACUUCAAGUAAUCAGUC [Fam1B.1 aminoacylation ribozyme variant] | 0.586 | 4.86 | 1.72 | 0.723 | 0.686 | 0.635
AUUCACGUAGGUCAUCGUGUG [Fam2.2 aminoacylation ribozyme variant] | 1.57 | 7.45 | 1.79 | 1.28 | 1.15 | 1.82
CCACACUUCGAGAAAUCGGUC [Fam1B.1 aminoacylation ribozyme variant] | 1.18 | 0.511 | 0.812 | 0.976 | 0.951 | 1.12
CGCCUUCAAACAAUCGGUCUG [Fam1A.1 aminoacylation ribozyme variant] | 1.94 | 146 | 55.5 | 1.8 | 1.59 | 3.13
CUACUUCAAACCAUGGGUCUG [Fam1A.1 aminoacylation ribozyme variant] | 0.765 | 0.455 | 0.564 | 0.776 | 0.966 | 0.827
AUUGACCUAGGUCAUCGAGUG [Fam2.2 aminoacylation ribozyme variant] | 9.94 | 27.9 | 6.09 | 5 | 6.03 | 13.7
AAGUUUACUAAUGGUCGCAAG [Fam3.1 aminoacylation ribozyme variant] | 1.28 | 1.64 | 2.06 | 1.1 | 1.59 | 1.47
AUUCGCCUAGGUCAUUGGGUG [Fam2.2 aminoacylation ribozyme variant] | 4.27 | 23.2 | 4.29 | 3.23 | 3.14 | 5.43
AUUCACCUAGGUCAGCUGGUG [Fam2.2 aminoacylation ribozyme variant] | 2.56 | 15.1 | 1.7 | 1.64 | 1.92 | 2.7
AAGUUUGCCAAUAGUCGCUAG [Fam3.1 aminoacylation ribozyme variant] | 0.716 | 0.897 | 2.08 | 0.926 | 1.15 | 0.951
CUAUUUCAAGCAAUCGGUCUG [Fam1A.1 aminoacylation ribozyme variant] | 0.741 | 1.61 | 0.883 | 0.795 | 0.881 | 0.996
